Results reported in patent US20040002439A1 (ORTHO MCNEIL PHARMACEUTICAL, published 2004).

Biological target: Nav1.2 (a type II alpha subunit)
Test: cell-based or functional assay

ionic current conducted by Nav1.2 in Xenopus oocytes (cut-open oocyte voltage clamp): ~3 fold
B1: human voltage gated sodium channel β1A subunit (other)
chain: ACGGCVEVDSETEAVYGMTFKILCISCKRRSETNAETFTEWTFRQKGTEEFVKILRYENEVLQLEEDERFEGRVVWNGSRGTKDLQDLSIFITNVTYNHSGDYECHVYRLLFFENYEHNTSVVKKIHIEVVDKGESGAACPFTVTHRRARWRDRWQAVDRTGWLCAWPANRPQQRAEGEGSSPSCPLQLWPLFLSSPRRGQSMPVPHRRSGYRTQLCHLCCMTSGRCLLSLSQRVVLGLPGIIIRCVSRGVV
